The data set concerns the target hPcf11 (in CF II);hClp1 (human;human, UniProt O94913;Q92989 1-1555;1-425, |). Nature of the data set: EMSA. (Mobility shift assays separate free from complexed probe on a gel.)

Sequence of hPcf11 (in CF II);hClp1 (O94913 whole entry, chain 1 of 2): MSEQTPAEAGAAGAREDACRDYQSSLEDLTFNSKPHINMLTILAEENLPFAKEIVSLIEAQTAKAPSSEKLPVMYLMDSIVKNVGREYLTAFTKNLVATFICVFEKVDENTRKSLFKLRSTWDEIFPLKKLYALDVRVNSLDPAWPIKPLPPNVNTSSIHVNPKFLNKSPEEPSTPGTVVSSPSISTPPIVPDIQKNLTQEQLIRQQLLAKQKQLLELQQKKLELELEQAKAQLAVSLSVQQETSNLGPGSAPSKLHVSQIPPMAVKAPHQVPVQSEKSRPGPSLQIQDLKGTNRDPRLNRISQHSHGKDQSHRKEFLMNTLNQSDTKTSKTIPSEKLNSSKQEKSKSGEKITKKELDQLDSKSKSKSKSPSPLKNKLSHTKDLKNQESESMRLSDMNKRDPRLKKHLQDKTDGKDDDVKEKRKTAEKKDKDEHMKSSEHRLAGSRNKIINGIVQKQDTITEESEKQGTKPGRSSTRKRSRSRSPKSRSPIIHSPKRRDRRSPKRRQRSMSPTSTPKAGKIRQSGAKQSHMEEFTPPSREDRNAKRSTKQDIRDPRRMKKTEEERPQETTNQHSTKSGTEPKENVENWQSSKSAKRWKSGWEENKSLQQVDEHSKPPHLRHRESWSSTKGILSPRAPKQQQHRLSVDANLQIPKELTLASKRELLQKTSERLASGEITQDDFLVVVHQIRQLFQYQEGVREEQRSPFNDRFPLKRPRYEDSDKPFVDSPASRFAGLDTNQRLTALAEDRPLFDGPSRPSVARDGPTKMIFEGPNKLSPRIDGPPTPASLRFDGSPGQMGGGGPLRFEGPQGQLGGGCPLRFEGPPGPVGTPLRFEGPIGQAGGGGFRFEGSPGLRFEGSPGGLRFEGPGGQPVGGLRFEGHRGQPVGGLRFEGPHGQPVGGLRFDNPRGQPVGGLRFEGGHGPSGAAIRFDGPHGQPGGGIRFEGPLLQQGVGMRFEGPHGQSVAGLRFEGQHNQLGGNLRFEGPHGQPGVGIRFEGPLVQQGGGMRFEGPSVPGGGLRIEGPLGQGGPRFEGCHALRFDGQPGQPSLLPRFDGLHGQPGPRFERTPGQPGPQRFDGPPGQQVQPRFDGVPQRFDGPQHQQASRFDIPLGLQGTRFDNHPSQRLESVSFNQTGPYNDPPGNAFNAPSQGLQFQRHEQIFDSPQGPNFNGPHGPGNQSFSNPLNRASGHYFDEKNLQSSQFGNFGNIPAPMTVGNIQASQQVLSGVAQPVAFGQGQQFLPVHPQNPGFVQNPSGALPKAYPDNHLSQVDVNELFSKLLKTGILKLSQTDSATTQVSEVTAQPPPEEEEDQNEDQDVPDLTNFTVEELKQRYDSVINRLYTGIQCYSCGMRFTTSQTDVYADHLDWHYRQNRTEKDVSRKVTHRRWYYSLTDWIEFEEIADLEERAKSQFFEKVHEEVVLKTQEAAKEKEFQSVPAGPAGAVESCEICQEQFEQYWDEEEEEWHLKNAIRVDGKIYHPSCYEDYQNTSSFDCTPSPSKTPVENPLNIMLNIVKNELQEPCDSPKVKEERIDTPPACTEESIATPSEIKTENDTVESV
Sequence of hPcf11 (in CF II);hClp1 (Q92989 whole entry, chain 2 of 2): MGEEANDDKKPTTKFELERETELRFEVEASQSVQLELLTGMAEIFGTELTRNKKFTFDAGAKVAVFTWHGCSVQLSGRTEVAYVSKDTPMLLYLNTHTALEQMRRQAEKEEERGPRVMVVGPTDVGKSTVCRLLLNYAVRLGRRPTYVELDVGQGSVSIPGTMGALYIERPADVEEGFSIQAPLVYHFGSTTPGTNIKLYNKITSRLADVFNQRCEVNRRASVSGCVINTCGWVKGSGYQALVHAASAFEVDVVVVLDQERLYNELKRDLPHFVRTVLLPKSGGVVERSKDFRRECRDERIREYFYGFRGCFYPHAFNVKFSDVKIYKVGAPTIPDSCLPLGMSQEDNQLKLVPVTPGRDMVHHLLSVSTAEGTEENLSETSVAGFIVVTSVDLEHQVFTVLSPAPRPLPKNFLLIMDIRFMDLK

By Kd is commonly meant the constant that tells how readily two partners part at equilibrium. For the molecule GGGGGGGGGGG (ssRNA) [G11], the Kd amounted to 41 nM. This lies in the double-digit nanomolar range. Molecule GGGGGGGGGGGGG (ssRNA) [G13] yielded a Kd of 21 ± 12 nM. The result for GGGGGAGGUGUGGGAGG (ssRNA) [208-224] reads 5.2 nM. The result for GGUUCAGGGGGAGGUGUGGGAGG (ssRNA) [202-224] reads 0.8 nM. The result for GGGGGAGGUGUGGGAGGU (ssRNA) [208-225] reads 2.6 nM; that for GGGUUUAAGUGGGUCACG (ssRNA) [BS2-d1], 13 nM. GGGUUUAAGUGGGUCACGUUUAAAC (ssRNA) [BS2] gave a Kd of 11 nM. UUUAAGUGGGUCACG (ssRNA) [BS2-d3] had a Kd of 105 nM. With GGGGGGGGGGGG (ssRNA) [G12] the figure was 21 ± 9 nM; with CCCUUUAAGUGGGUCACG (ssRNA) [BS2-d2], 54 nM.

Source of the values: article doi:10.1101/366336.
